# According to the supplement of paper PMC12764529:
# ± gives the half width of the 95% confidence interval.
# Key:
# [1] = folding stability dG unfold (combined trypsin and chymotrypsin); higher = more stable
# Outline: (§1)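 Bayesian fitting of sequencing counts gave K50 for each design. Unfolding free energy followed by setting this against a sequence-predicted unfolded-state K50 and a shared folded-state K50, either per protease or with trypsin and chymotrypsin combined. The designs, under 80 residues and lacking cysteine, were digested in a PA-tagged cDNA display format at 11 threefold-diluted protease concentrations and without protease, and only those with AlphaFold2 dimer inter-PAE above 15 were kept.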
# [2] = folding stability dG unfold from chymotrypsin proteolysis; higher = more stable
# Outline: as §1
# [3] = folding stability dG unfold from trypsin proteolysis; higher = more stable
# Outline: as §1
Sequence,folding stability dG unfold [1] [kcal/mol],folding stability dG unfold [2] [kcal/mol],folding stability dG unfold [3] [kcal/mol]
SAGGSSMINLTITITVKDPSTGKVTTIPLNKKLTPEEIEELVKEIIEKIEKENPDKPIEVLKVEINSAGGSA [r2_59_JUSTAS],2.81 ± 0.25,2.48 ± 0.12,3.4 ± 0.21
SAGGSAPLPPGAVVEIVEVRFDPETRRIEMVVKVYDANGELVATLRVELEFDPETNELTLRVELLPSAGGSA [r15_1028_TrROS_Hall],4.23 ± 0.14,4.5 ± 0.18,3.41 ± 0.24
SASPDAPVEVVVSLRELRERIEAEHPGRPVTPEDVAALAREELEAAGRPLEDLRVEAVDEATGTVRLVASAG [r14_303_JUSTAS],0.907 ± 0.035,1.29 ± 0.019,-0.251 ± 0.054
SAGGMSPELKKNKNVEKVIYNKKTGKVFVYNKKTKKLYIFTKNGKKIEIKMSKDEVEKLLKKGFKPISAGGS [r16_745_TrROS_Hall],2.86 ± 0.2,3.22 ± 0.16,2.14 ± 0.11
SPWYVRIKLEYPGKEKRIMIPPDESISQIKDNIRDFAREMGLEEPPLDDFKIEDVEVFPDENGMVSIEIKSA [r9_1053_TrROS],0.819 ± 0.41,1.15 ± 0.21,0.606 ± 0.32
SAPPLPPETITLTLTIDGYEITVTLTRLPDGTVKLTVTVTLPDGTTVTITMYFDAKTNKWYITKIEITPPSA [r9_795_TrROS_Hall],5.26 ± 0.33,5.19 ± 0.12,4.04 ± 0.48
SAGMTITVKPGEKVKVTIKVEVFDENGKLIKKEEKEVEITVKEGDEITIKIKLDKPVKVKIEIKIEKKSAGG [r19_295_TrROS_Hall],2.29 ± 0.25,2.01 ± 0.15,2.67 ± 0.17
SAGGMNVSYLFSKSVPKEEIEAYLKKLDPNKKYKFEELEPEEIEKLPESIEVIEKPVDETLRLVLVEESAGG [r13_649_JUSTAS],0.473 ± 0.12,0.765 ± 0.11,-0.323 ± 0.092
SAGGSAGGSAGKTIYAPYSKIPEVIEELKKKGYEIDSIEKVPNGSYKISFKNKPIEINLGSAGGSAGGSAGG [r17_379_TrMRF],3.65 ± 0.088,3.83 ± 0.048,3.24 ± 0.078
SAGGSAGGSAGGMPLTLTSETVTVERDPTSNNVVTTTTTTYKLPNGTLVTVTTTTTSPTTSAGGSAGGSAGG [r7_267_JUSTAS],2.33 ± 0.06,2.21 ± 0.034,2.38 ± 0.1
SAGGSADELVVRLRVRDPRTERPLEIDLPVPASLTPEEAIARAERLAAAFRSLGLETEVEVEPVPRSAGGSA [r15_268_TrMRF],1.73 ± 0.046,1.88 ± 0.042,1.45 ± 0.035
SAGGMPDITEVELLDVEYDPETGTYRFRVKVKLKDGTEREVEIPFVDEDGDFGIEEILKAAEELVEESAGGS [r16_221_TrMRF],3.66 ± 0.18,4 ± 0.045,2.71 ± 0.14
SAGGSAGGSAGGKVAIVTASPEKAKEIAKKAGIKDVIIIPKNKPELLGPNVDKVILVAEKSAGGSAGGSAGG [r7_381_TrMRF],< -1,-1.94 ± 0.33,-0.629 ± 0.066
SAGGEKITAEELVEEIQKIFNENGMKPVAIEPMPDGGVFIHFKNPYMIMIDAEEGKIEIMPPEDMEDFSAGG [r13_717_TrROS],1.09 ± 0.27,1.49 ± 0.13,1.04 ± 0.068
SIRGMPPEVVLYIIRFFAREQKNKGMPPDDRPIEINIMMPNPEARKDAKKEIKEENPGIKDVKIEVMPPNSA [r9_341_TrROS],2.61 ± 0.56,3.1 ± 0.17,2.2 ± 0.11
SAEYTPVGPNEDAEVWEVPNLGKLFTIDPKDDVVEITEVHFDDGDLSPHPHTVRVDVPEEDRDRLRDLLSAG [r14_245_TrMRF],-0.213 ± 0.14,-1.11 ± 0.58,0.0643 ± 0.06
SAGGSLSNVTPLGTTPVTLPGSTVTITVYKSDTPGVVYVKIEYPETGVEKVRVLSPEELEKVIEELLSAGGS [r8_469_JUSTAS],3.07 ± 0.054,3.199 ± 0.025,2.69 ± 0.071
